Results published in patent US20240382628A1.

Target: CD11b on cells in whole blood (species not stated) (Homo sapiens (Human)) (UniProt P11215)
Test: adhesion of antibody-bearing backpacks to cells in whole blood

- % of CD14+ monocytes with adhered backpacks: 95%
Substance: CD11b antibody (M1/70 clone, Biolegend Purified anti-mouse/human CD11b Antibody Cat #101201/101202), on polymeric particles (backpacks)
